Earlier results, collected in PMC4698235.

Experiments:
IDE (Homo sapiens) = IDE (Homo sapiens) (UniProt P14735)
insulin (Homo sapiens) = insulin (Homo sapiens) (UniProt P01308)
Chain of UniProt P01308 (P01308 90-110): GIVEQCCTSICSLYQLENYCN

## IDE (from UniProt P14735)
IDE (Homo sapiens)
  Kd: 10 nM
Insulin (Homo sapiens)
  Kd: 10 nM
